The numbers were not newly measured in publication PMC3982939, which cites them from elsewhere.

One may read the Kd as the concentration at which binding is half-saturated.

For series [1], the target named is uroguanylin (Homo sapiens) (UniProt Q16661).
Series [2] has as its target guanylin (Homo sapiens) (UniProt Q02747).

Take “Guanylyl cyclase C ECD (from UniProt P25092)”: the Kd in series [1] is 1 nM; in series [2], 10 nM.
